Test results: US20110091994A1, “Methods for Screening Compounds for Treating and/or Preventing an Hepatitis C Virus Infection” (priority 2008, published 2011)
Like-named read-outs stand apart in the source and are kept apart here.

How the values were obtained:
[1] = target: T1, HCV ORFs (Gal4-DB fusions) (Hepatitis C virus genotype 1b, UniProt Q9WMX2); type: binding, HCV genotype 1b, isolate con1; conditions: human protein as prey
T1 construct: expressed in transfected cells; host or cells: Saccharomyces cerevisiae MAV203 (IMAP1) / AH109 (IMAP2)
Description: (§1) HCV ORFs were transferred from pDONR223 into bait vector (pPC97) to be expressed as Gal4-DB fusions in yeast. Two different screening methods were used (IMAP1 and IMAP2). Both for IMAP1 and IMAP2 strategies and because bait constructs sometimes self-transactivate reporter genes, SD-L-H culture medium were supplemented with 3-aminotriazole (3-AT). Appropriate concentrations of this drug were determined by growing bait strains on SD-L-H medium supplemented with increasing concentrations of 3-AT. […] For IMAP1, bait vectors were introduced in MAV203 yeast strain and both human spleen and foetal brain AD-cDNA libraries (Invitrogen) were screened by transformation as described (7). All primary positive clones (selected on SD-W-L-H+3-AT) were tested by further phenotypic assay using two additional reporter genes: LacZ (X-Gal colorimetric assay) and URA3 (growth assay on 5-FOA supplemented medium). […] AD-cDNA were PCR-amplified and inserts were sequenced to identify interactors. IMAP2 screens were performed by yeast mating, using AH109 and Y187 yeast strains (Clontech (8)). Bait vectors were transformed into AH109 (bait strain) and human spleen and foetal brain AD-cDNA libraries (Invitrogen) were transformed into Y187 (prey strain). Single bait strains were mated with prey strains then diploids were plated on SD-W-L-H+3-AT medium. Positive clones were maintained onto this selective medium for 15 days to eliminate any contaminant AD-cDNA plasmid (9). AD-cDNAs were PCR amplified and inserts were sequenced.
(§2) We have developed a bioinformatic pipeline that assigns each IST to its native human genome transcript. […] Gal4 motif was searched (last 87 bases of GAL4-AD), sequences downstream of this motif were translated into peptides and aligned using BLASTP against the REFSEQ (http://www.ncbi.nlm.nih.gov/RefSeq/) human protein sequence database (release 04/2007). Low-confidence alignments (E value>10^−10, identity <80%) and premature STOP codon containing sequences were eliminated. Only in-frame proteins and high quality sequences were further considered

[2] = test system: HCV ORFs (Gal4-DB fusions); type: binding, HCV genotype 1b, isolate con1; conditions: human protein listed by gene symbol; the value names the HCV protein it interacts with
Description: as §1, §2
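Note: yeast two-hybrid screens using HCV genotype 1b proteins fused to Gal4-DB as baits against prey cDNA libraries from human spleen and foetal brain, IMAP1 via transformation and IMAP2 via mating.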

B1: DLAT (protein, UniProt P10515 87-647, looked up)
Dihydrolipoyllysine-residue …: SLPPHQKVPLPSLSPTMQAGTIARWEKKEGDKINEGDLIAEVETDKATVGFESLEECYMAKILVAEGTRDVPIGAIICITVGKPEDIEAFKNYTLDSSAAPTPQAAPAPTPAATASPPTPSAQAPGSSYPPHMQVLLPALSPTMTMGTVQRWEKKVGEKLSEGDLLAEIETDKATIGFEVQEEGYLAKILVPEGTRDVPLGTPLCIIVEKEADISAFADYRPTEVTDLKPQVPPPTPPPVAAVPPTPQPLAPTPSAPCPATPAGPKGRVFVSPLAKKLAVEKGIDLTQVKGTGPDGRITKKDIDSFVPSKVAPAPAAVVPPTGPGMAPVPTGVFTDIPISNIRRVIAQRLMQSKQTIPHYYLSIDVNMGEVLLVRKELNKILEGRSKISVNDFIIKASALACLKVPEANSSWMDTVIRQNHVVDVSVAVSTPAGLITPIVFNAHIKGVETIANDVVSLATKAREGKLQPHEFQGGTFTISNLGMFGIKNFSAIINPPQACILAIGASEDKLVPADNEKGFDVASMMSVTLSCDHRVVDGAVGAQWLAEFRKYLEKPITMLL
[1]; HCV protein NS3 as bait
  IMAP Y2H IMAP2 (number of IST): 8
[2]
  Interaction with viral protein: NS3

B2: BIN1 (protein, UniProt O00499 2-593, looked up)
Myc box-dependent-interacting …: AEMGSKGVTAGKIASNVQKKLTRAQEKVLQKLGKADETKDEQFEQCVQNFNKQLTEGTRLQKDLRTYLASVKAMHEASKKLNECLQEVYEPDWPGRDEANKIAENNDLLWMDYHQKLVDQALLTMDTYLGQFPDIKSRIAKRGRKLVDYDSARHHYESLQTAKKKDEAKIAKPVSLLEKAAPQWCQGKLQAHLVAQTNLLRNQAEEELIKAQKVFEEMNVDLQEELPSLWNSRVGFYVNTFQSIAGLEENFHKEMSKLNQNLNDVLVGLEKQHGSNTFTVKAQPSDNAPAKGNKSPSPPDGSPAATPEIRVNHEPEPAGGATPGATLPKSPSQLRKGPPVPPPPKHTPSKEVKQEQILSLFEDTFVPEISVTTPSQFEAPGPFSEQASLLDLDFDPLPPVTSPVKAPTPSGQSIPWDLWEPTESPAGSLPSGEPSAAEGTFAVSWPSQTAEPGPAQPAEASEVAGGTQPAAGAQEPGETAASEAASSSLPAVVVETFPATVNGTVEGGSGAGRLDLPPGFMFKVQAQHDYTATDTDELQLKAGDVVLVIPFQNPEEQDEGWLMGVKESDWNQHKELEKCRGVFPENFTERVP
[1]; HCV protein NS5A as bait
  IMAP Y2H IMAP1 (number of IST): 16
  IMAP Y2H IMAP2 (number of IST): 14

B3: EEF1A1 (protein, UniProt P68104 2-462, looked up)
Elongation factor 1-alpha 1: GKEKTHINIVVIGHVDSGKSTTTGHLIYKCGGIDKRTIEKFEKEAAEMGKGSFKYAWVLDKLKAERERGITIDISLWKFETSKYYVTIIDAPGHRDFIKNMITGTSQADCAVLIVAAGVGEFEAGISKNGQTREHALLAYTLGVKQLIVGVNKMDSTEPPYSQKRYEEIVKEVSTYIKKIGYNPDTVAFVPISGWNGDNMLEPSANMPWFKGWKVTRKDGNASGTTLLEALDCILPPTRPTDKPLRLPLQDVYKIGGIGTVPVGRVETGVLKPGMVVTFAPVNVTTEVKSVEMHHEALSEALPGDNVGFNVKNVSVKDVRRGNVAGDSKNDPPMEAAGFTAQVIILNHPGQISAGYAPVLDCHTAHIACKFAELKEKIDRRSGKKLEDGPKFLKSGDAAIVDMVPGKPMCVESFSDYPPLGRFAVRDMRQTVAVGVIKAVDKKAAGAGKVTKSAQKAQKAK
[1]; HCV protein NS3 as bait
  IMAP Y2H IMAP2 (number of IST): 1
[2]
  Interaction with viral protein: NS3

B4: NAPL1L2 (protein, UniProt Q9ULW6 1-460, looked up)
Nucleosome assembly protein …: MAESENRKELSESSQEEAGNQIMVEGLGEHLERGEDAAAGLGDDGKCGEEAAAGLGEEGENGEDTAAGSGEDGKKGGDTDEDSEADRPKGLIGYVLDTDFVESLPVKVKYRVLALKKLQTRAANLESKFLREFHDIERKFAEMYQPLLEKRRQIINAIYEPTEEECEYKSDSEDCDDEEMCHEEMYGNEEGMVHEYVDEDDGYEDYYYDYAVEEEEEEEEEDDIEATGEENKEEEDPKGIPDFWLTVLKNVDTLTPLIKKYDEPILKLLTDIKVKLSDPGEPLSFTLEFHFKPNEYFKNELLTKTYVLKSKLAYYDPHPYRGTAIEYSTGCEIDWNEGKNVTLKTIKKKQKHRIWGTIRTVTEDFPKDSFFNFFSPHGITSNGRDGNDDFLLGHNLRTYIIPRSVLFFSGDALESQQEGVVREVNDAIYDKIIYDNWMAAIEEVKACCKNLEALVEDIDR
[1]; HCV protein NS3 as bait
  IMAP Y2H IMAP2 (number of IST): 1

B5: DDX3Y (protein, UniProt O15523 2-660, looked up)
ATP-dependent RNA helicase …: SHVVVKNDPELDQQLANLDLNSEKQSGGASTASKGRYIPPHLRNREASKGFHDKDSSGWSCSKDKDAYSSFGSRDSRGKPGYFSERGSGSRGRFDDRGRSDYDGIGNRERPGFGRFERSGHSRWCDKSVEDDWSKPLPPSERLEQELFSGGNTGINFEKYDDIPVEATGSNCPPHIENFSDIDMGEIIMGNIELTRYTRPTPVQKHAIPIIKGKRDLMACAQTGSGKTAAFLLPILSQIYTDGPGEALKAVKENGRYGRRKQYPISLVLAPTRELAVQIYEEARKFSYRSRVRPCVVYGGADIGQQIRDLERGCHLLVATPGRLVDMMERGKIGLDFCKYLVLDEADRMLDMGFEPQIRRIVEQDTMPPKGVRHTMMFSATFPKEIQMLARDFLDEYIFLAVGRVGSTSENITQKVVWVEDLDKRSFLLDILGATGSDSLTLVFVETKKGADSLEDFLYHEGYACTSIHGDRSQRDREEALHQFRSGKSPILVATAVAARGLDISNVRHVINFDLPSDIEEYVHRIGRTGRVGNLGLATSFFNEKNMNITKDLLDLLVEAKQEVPSWLENMAYEHHYKGGSRGRSKSNRFSGGFGARDYRQSSGSSSSGFGASRGSSSRSGGGGYGNSRGFGGGGYGGFYNSDGYGGNYNSQGVDWWGN
[1]; HCV protein CORE as bait
  IMAP Y2H IMAP2 (number of IST): 3
[2]
  Interaction with viral protein: CORE

B6: EGFL7 (protein, UniProt Q9UHF1 24-273, looked up)
Epidermal growth factor-like …: YRPGRRVCAVRAHGDPVSESFVQRVYQPFLTTCDGHRACSTYRTIYRTAYRRSPGLAPARPRYACCPGWKRTSGLPGACGAAICQPPCRNGGSCVQPGRCRCPAGWRGDTCQSDVDECSARRGGCPQRCVNTAGSYWCQCWEGHSLSADGTLCVPKGGPPRVAPNPTGVDSAMKEEVQRLQSRVDLLEEKLQLVLAPLHSLASQALEHGLPDPGSLLVHSFQQLGRIDSLSEQISFLEEQLGSCSCKKDS
[1]; HCV protein CORE as bait
  IMAP Y2H IMAP2 (number of IST): 1
[2]
  Interaction with viral protein: CORE

B7: UBASH3A (protein, UniProt P57075 1-661, looked up)
Ubiquitin-associated and SH3 …: MAAGETQLYAKVSNKLKSRSSPSLLEPLLAMGFPVHTALKALAATGRKTAEEALAWLHDHCNDPSLDDPIPQEYALFLCPTGPLLEKLQEFWRESKRQCAKNRAHEVFPHVTLCDFFTCEDQKVECLYEALKRAGDRLLGSFPTAVPLALHSSISYLGFFVSGSPADVIREFAMTFATEASLLAGTSVSRFWIFSQVPGHGPNLRLSNLTRASFVSHYILQKYCSVKPCTKQLHLTLAHKFYPHHQRTLEQLARAIPLGHSCQWTAALYSRDMRFVHYQTLRALFQYKPQNVDELTLSPGDYIFVDPTQQDEASEGWVIGISQRTGCRGFLPENYTDRASESDTWVKHRMYTFSLATDLNSRKDGEASSRCSGEFLPQTARSLSSLQALQATVARKSVLVVRHGERVDQIFGKAWLQQCSTPDGKYYRPDLNFPCSLPRRSRGIKDFENDPPLSSCGIFQSRIAGDALLDSGIRISSVFASPALRCVQTAKLILEELKLEKKIKIRVEPGIFEWTKWEAGKTTPTLMSLEELKEANFNIDTDYRPAFPLSALMPAESYQEYMDRCTASMVQIVNTCPQDTGVILIVSHGSTLDSCTRPLLGLPPRECGDFAQLVRKIPSLGMCFCEENKEEGKWELVNPPVKTLTHGANAAFNWRNWISGN
[1]; HCV protein NS5A as bait
  IMAP Y2H IMAP2 (number of IST): 1

B8: FAM65A (protein, UniProt Q6ZS17 1-1223, looked up)
Rho family-interacting cell …: MMSLSVRPQRRLLSARVNRSQSFAGVLGSHERGPSLSFRSFPVFSPPGPPRKPPALSRVSRMFSVAHPAAKVPQPERLDLVYTALKRGLTAYLEVHQQEQEKLQGQIRESKRNSRLGFLYDLDKQVKSIERFLRRLEFHASKIDELYEAYCVQRRLRDGAYNMVRAYTTGSPGSREARDSLAEATRGHREYTESMCLLESELEAQLGEFHLRMKGLAGFARLCVGDQYEICMKYGRQRWKLRGRIEGSGKQVWDSEETIFLPLLTEFLSIKVTELKGLANHVVVGSVSCETKDLFAALPQVVAVDINDLGTIKLSLEVTWSPFDKDDQPSAASSVNKASTVTKRFSTYSQSPPDTPSLREQAFYNMLRRQEELENGTAWSLSSESSDDSSSPQLSGTARHSPAPRPLVQQPEPLPIQVAFRRPETPSSGPLDEEGAVAPVLANGHAPYSRTLSHISEASVDAALAEASVEAVGPESLAWGPSPPTHPAPTHGEHPSPVPPALDPGHSATSSTLGTTGSVPTSTDPAPSAHLDSVHKSTDSGPSELPGPTHTTTGSTYSAITTTHSAPSPLTHTTTGSTHKPIISTLTTTGPTLNIIGPVQTTTSPTHTMPSPTHTTASPTHTSTSPTHTPTSPTHKTSMSPPTTTSPTPSGMGLVQTATSPTHPTTSPTHPTTSPILINVSPSTSLELATLSSPSKHSDPTLPGTDSLPCSPPVSNSYTQADPMAPRTPHPSPAHSSRKPLTSPAPDPSESTVQSLSPTPSPPTPAPQHSDLCLAMAVQTPVPTAAGGSGDRSLEEALGALMAALDDYRGQFPELQGLEQEVTRLESLLMQRQGLTRSRASSLSITVEHALESFSFLNEDEDEDNDVPGDRPPSSPEAGAEDSIDSPSARPLSTGCPALDAALVRHLYHCSRLLLKLGTFGPLRCQEAWALERLLREARVLEAVCEFSRRWEIPASSAQEVVQFSASRPGFLTFWDQCTERLSCFLCPVERVLLTFCNQYGARLSLRQPGLAEAVCVKFLEDALGQKLPRRPQPGPGEQLTVFQFWSFVETLDSPTMEAYVTETAEEVLLVRNLNSDDQAVVLKALRLAPEGRLRRDGLRALSSLLVHGNNKVMAAVSTQLRSLSLGPTFRERALLCFLDQLEDEDVQTRVAGCLALGCIKAPEGIEPLVYLCQTDTEAVREAARQSLQQCGEEGQSAHRRLEESLDALPRIFGPGSMASTAF
[1]; HCV protein NS3 as bait
  IMAP Y2H IMAP2 (number of IST): 1
[2]
  Interaction with viral protein: NS3

B9: DDX3X (protein, UniProt O00571 2-662, looked up)
ATP-dependent RNA helicase …: SHVAVENALGLDQQFAGLDLNSSDNQSGGSTASKGRYIPPHLRNREATKGFYDKDSSGWSSSKDKDAYSSFGSRSDSRGKSSFFSDRGSGSRGRFDDRGRSDYDGIGSRGDRSGFGKFERGGNSRWCDKSDEDDWSKPLPPSERLEQELFSGGNTGINFEKYDDIPVEATGNNCPPHIESFSDVEMGEIIMGNIELTRYTRPTPVQKHAIPIIKEKRDLMACAQTGSGKTAAFLLPILSQIYSDGPGEALRAMKENGRYGRRKQYPISLVLAPTRELAVQIYEEARKFSYRSRVRPCVVYGGADIGQQIRDLERGCHLLVATPGRLVDMMERGKIGLDFCKYLVLDEADRMLDMGFEPQIRRIVEQDTMPPKGVRHTMMFSATFPKEIQMLARDFLDEYIFLAVGRVGSTSENITQKVVWVEESDKRSFLLDLLNATGKDSLTLVFVETKKGADSLEDFLYHEGYACTSIHGDRSQRDREEALHQFRSGKSPILVATAVAARGLDISNVKHVINFDLPSDIEEYVHRIGRTGRVGNLGLATSFFNERNINITKDLLDLLVEAKQEVPSWLENMAYEHHYKGSSRGRSKSSRFSGGFGARDYRQSSGASSSSFSSSRASSSRSGGGGHGSSRGFGGGGYGGFYNSDGYGGNYNSQGVDWWGN
[1]; HCV protein CORE as bait
  IMAP Y2H IMAP2 (number of IST): 1
